Test results published in PMC12609076.

Legend:
[1] = biological target: Bradyrhizobium japonicum SemiSWEET (Bradyrhizobium japonicum); assay: not stated; BjSemiSWEET in liposomes (fig. S8B); method not given
[2] = biological target: Bradyrhizobium japonicum SemiSWEET (Bradyrhizobium japonicum); assay: not stated; BjSemiSWEET in detergent (fig. S8A); method not given

stoichiometry N [1]: 2
stoichiometry N [2]: 2
Substance: Bradyrhizobium japonicum SemiSWEET (natural protein)
